According to the Immune Epitope Database (IEDB):

Assays:
HLA-A*02:06 = assay: IEDB peptide-MHC binding, purified MHC/competitive/radioactivity; ≥ and ≤ were set here for values at or beyond the usual limits of such assays
HLA-A*02:03 = assay: as above
HLA-A*02:02 = assay: as above
HLA-A*02:01 = assay: as above
HLA-A*68:02 = assay: IEDB peptide-MHC binding, cellular MHC/competitive/fluorescence; ≥ and ≤ were set here for values at or beyond the usual limits of such assays
[1] = source organism: Vaccinia virus WR
[2] = source organism: Hepacivirus hominis

Row | Sequence | IC50 (HLA-A*02:06; [1]) [nM] | IC50 (HLA-A*02:03; [1]) [nM] | IC50 (HLA-A*02:02; [1]) [nM] | IC50 (HLA-A*02:01; [1]) [nM] | IC50 (HLA-A*68:02; [1]) [nM] | other results
1 | LLEQLIENI | 539 | 1960 | 702 | 1570 | ≥ 70000 | 
2 | SLVTSFLLM |  |  |  |  |  | IC50 (HLA-A*02:06; source organism: SARS-CoV1): 257 nM; IC50 (HLA-A*02:03; source organism: SARS-CoV1): 49 nM; IC50 (HLA-A*02:02; source organism: SARS-CoV1): 66 nM; IC50 (HLA-A*02:01; source organism: SARS-CoV1): 271 nM; IC50 (HLA-A*68:02; source organism: SARS-CoV1): 50100 nM
3 | ALDCQIYGA |  |  |  |  |  | IC50 (HLA-A*02:06; [2]): 1200 nM; IC50 (HLA-A*02:03; [2]): 1800 nM; IC50 (HLA-A*02:02; [2]): 1590 nM; IC50 (HLA-A*02:01; [2]): 143 nM; IC50 (HLA-A*68:02; [2]): ≥ 70000 nM
4 | WMMLLIAQA |  |  |  |  |  | IC50 (HLA-A*02:06; [2]): 712 nM; IC50 (HLA-A*02:03; [2]): 47 nM; IC50 (HLA-A*02:02; [2]): 53 nM; IC50 (HLA-A*02:01; [2]): 75 nM; IC50 (HLA-A*68:02; [2]): 15800 nM
5 | LMLKATLLCV |  |  |  |  |  | IC50 (HLA-A*02:06; source organism: SARS-CoV1): 63 nM; IC50 (HLA-A*02:03; source organism: SARS-CoV1): 21 nM; IC50 (HLA-A*02:02; source organism: SARS-CoV1): 3.4 nM; IC50 (HLA-A*02:01; source organism: SARS-CoV1): 19 nM; IC50 (HLA-A*68:02; source organism: SARS-CoV1): 8860 nM
6 | KLLNMRDLI | 44 | 329 | 496 | 18 | 30200 | 
7 | WLKDSAIMVA | 4840 | 1320 | 15 | 673 | 10100 | 
8 | LLDDFVEII |  |  |  |  |  | IC50 (HLA-A*02:06; source organism: SARS-CoV1): 159 nM; IC50 (HLA-A*02:03; source organism: SARS-CoV1): 523 nM; IC50 (HLA-A*02:02; source organism: SARS-CoV1): 136 nM; IC50 (HLA-A*02:01; source organism: SARS-CoV1): 51 nM; IC50 (HLA-A*68:02; source organism: SARS-CoV1): 30200 nM
9 | QIGGEAIFLI | 15 | 0.2 | 8.2 | 383 | ≥ 70000 | 
10 | LLLEWLAEVV |  |  |  |  |  | IC50 (HLA-A*02:06; source organism: SARS-CoV1): 0.52 nM; IC50 (HLA-A*02:03; source organism: SARS-CoV1): 0.81 nM; IC50 (HLA-A*02:02; source organism: SARS-CoV1): 0.31 nM; IC50 (HLA-A*02:01; source organism: SARS-CoV1): 0.37 nM; IC50 (HLA-A*68:02; source organism: SARS-CoV1): 10800 nM
11 | SLDQTHIKTI | 2460 | 15 | 1430 | 759 | 7580 | 
12 | RIKSVLDII | 2080 | 18 | 111 | 4700 | 14500 | 
13 | FMLCLLLLSV |  |  |  |  |  | IC50 (HLA-A*02:06; [2]): 194 nM; IC50 (HLA-A*02:03; [2]): 315 nM; IC50 (HLA-A*02:02; [2]): 472 nM; IC50 (HLA-A*02:01; [2]): 149 nM; IC50 (HLA-A*68:02; [2]): 28100 nM
14 | GIADIRDKYM | 1780 | 48 | 0.69 | 1100 | 5930 | 
15 | FLMSFTILCL |  |  |  |  |  | IC50 (HLA-A*02:06; source organism: SARS-CoV1): 74 nM; IC50 (HLA-A*02:03; source organism: SARS-CoV1): 213 nM; IC50 (HLA-A*02:02; source organism: SARS-CoV1): 0.82 nM; IC50 (HLA-A*02:01; source organism: SARS-CoV1): 9.2 nM; IC50 (HLA-A*68:02; source organism: SARS-CoV1): 7570 nM
16 | LVFLILCFT |  |  |  |  |  | IC50 (HLA-A*02:06; source organism: SARS-CoV1): 1370 nM; IC50 (HLA-A*02:03; source organism: SARS-CoV1): 1850 nM; IC50 (HLA-A*02:02; source organism: SARS-CoV1): 2490 nM; IC50 (HLA-A*02:01; source organism: SARS-CoV1): 507 nM; IC50 (HLA-A*68:02; source organism: SARS-CoV1): 6680 nM
17 | CLTVPNITI | 1660 | 75 | 96 | 1190 | 8000 | 
18 | KILSDENYLL | 16 | 3770 | 25 | 15 | ≥ 70000 | 

Row | Sequence | IC50 (HLA-A*02:06; [1]) [nM] | IC50 (HLA-A*02:03; [1]) [nM] | IC50 (HLA-A*02:02; [1]) [nM] | IC50 (HLA-A*02:01; [1]) [nM] | IC50 (HLA-A*68:02; [1]) [nM] | other results
19 | ILGIIITVGM | 4710 | 265 | 288 | 1270 | 38300 | 
20 | DMLLNVQTLI | 291 | 161 | 42 | 80 | 6690 | 
21 | VMHINSPFKV | 393 | 2.5 | 60 | 13 | 6270 | 
22 | RLIVYPDLGV |  |  |  |  |  | IC50 (HLA-A*02:06; [2]): 129 nM; IC50 (HLA-A*02:03; [2]): 15 nM; IC50 (HLA-A*02:02; [2]): 1.9 nM; IC50 (HLA-A*02:01; [2]): 43 nM; IC50 (HLA-A*68:02; [2]): 6680 nM
23 | YLLGDSDSVA | 135 | 23 | 2 | 20 | 10700 | 
24 | RALKAYFTA | 14 | 204 | 2350 | 158 | 11400 | 
25 | GAFMYTKHSM | 3140 | 458 | 544 | 2000 | 9600 | 
26 | LLLSICLGSL |  |  |  |  |  | IC50 (HLA-A*02:06; source organism: SARS-CoV1): 258 nM; IC50 (HLA-A*02:03; source organism: SARS-CoV1): 104 nM; IC50 (HLA-A*02:02; source organism: SARS-CoV1): 20 nM; IC50 (HLA-A*02:01; source organism: SARS-CoV1): 45 nM; IC50 (HLA-A*68:02; source organism: SARS-CoV1): 54900 nM
27 | SINITPDDGL | 0.34 | 1230 | 413 | 1020 | 5890 | 
28 | KLFPRLPGI |  |  |  |  |  | IC50 (HLA-A*02:06; [2]): 2.2 nM; IC50 (HLA-A*02:03; [2]): 0.5 nM; IC50 (HLA-A*02:02; [2]): 8.3 nM; IC50 (HLA-A*02:01; [2]): 1.3 nM; IC50 (HLA-A*68:02; [2]): 40200 nM
29 | GVSGLYIPGT | 32 | 2150 | 140 | 4730 | 15800 | 
30 | LLVQYGAKI | 1140 | 358 | 206 | 1770 | 6430 | 
31 | ALLSCIRNA | 77 | 6.2 | 120 | 23 | ≥ 70000 | 
32 | ILDNAAKYV | 1810 | 261 | 126 | 14 | 22700 | 
33 | TILATLNTL | 26 | 34 | 238 | 172 | 18500 | 
34 | SALMTLDDL | 100 | 707 | 411 | 1100 | 6940 | 
35 | VLTSVDIETA | 1410 | 421 | 62 | 747 | 11400 | 
